Results: the supplement of paper PMC9112550, “Optimization of the antimicrobial peptide Bac7 by deep mutational scanning” (BMC Biology, 2022)

Tested on: Escherichia coli TOP10
Test: shrunken log2 fold change of peptide-encoding DNA abundance (4.5 h post-induction vs induction); higher = less antimicrobial activity (less host growth inhibition)
Conditions: time post-induction: 4.5 h; library: site-saturation at positions 5, 18, 19, 20
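Note: peptides expressed intracellularly from a pBAD plasmid library in pooled LB shake-flask culture, induced with 0.3% L-arabinose, DNA abundance read by NGS, three biological replicates, DESeq2 with apeglm shrinkage.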

| Sequence | shrunken log2 fold change |
| --- | --- |
| RRIRFRPPRLPRPRPRPLRVPRP | -0.108 |
| RRIRKRPPRLPRPRPRPDMRPRP | 0.0676 |
| RRIRNRPPRLPRPRPRPTKEPRP | -0.0307 |
| RRIRARPPRLPRPRPRPGSVPRP | 0.301 |
| RRIRLRPPRLPRPRPRPDRHPRP | -0.279 |
| RRIRVRPPRLPRPRPRPKCIPRP | 0.0104 |
| RRIRMRPPRLPRPRPRPSSLPRP | -0.156 |
| RRIRIRPPRLPRPRPRPPTIPRP | -0.904 |
| RRIRCRPPRLPRPRPRPGAAPRP | 0.956 |
| RRIRTRPPRLPRPRPRPCSNPRP | -0.0243 |
| RRIRARPPRLPRPRPRPMIEPRP | 0.314 |
| RRIRDRPPRLPRPRPRPCKDPRP | -0.144 |
| RRIRWRPPRLPRPRPRPWVPPRP | 0.00582 |
| RRIRSRPPRLPRPRPRPHCFPRP | 0.111 |
| RRIRCRPPRLPRPRPRPQHHPRP | -0.46 |
| RRIRCRPPRLPRPRPRPNPWPRP | 0.017 |
| RRIRYRPPRLPRPRPRPCKQPRP | 0.00515 |
| RRIRVRPPRLPRPRPRPFKGPRP | -0.0313 |
| RRIRQRPPRLPRPRPRPQEHPRP | -0.942 |
| RRIRPRPPRLPRPRPRPVDIPRP | -0.288 |
| RRIRLRPPRLPRPRPRPCHCPRP | -0.0469 |
| RRIRPRPPRLPRPRPRPLHKPRP | -0.00927 |
| RRIRDRPPRLPRPRPRPAAWPRP | 1.56 |
| RRIRERPPRLPRPRPRPGYDPRP | -0.191 |
| RRIRVRPPRLPRPRPRPQLYPRP | -0.137 |

| Sequence | shrunken log2 fold change |
| --- | --- |
| RRIRHRPPRLPRPRPRPKEYPRP | -0.0937 |
| RRIRRRPPRLPRPRPRPCSWPRP | -0.124 |
| RRIRARPPRLPRPRPRPTCGPRP | 0.512 |
| RRIRKRPPRLPRPRPRPWFDPRP | -0.0566 |
| RRIRNRPPRLPRPRPRPVVVPRP | -0.11 |
| RRIRFRPPRLPRPRPRPQNCPRP | -0.195 |
| RRIRVRPPRLPRPRPRPKWKPRP | -0.0377 |
| RRIRQRPPRLPRPRPRPILTPRP | -0.955 |
| RRIRARPPRLPRPRPRPAAIPRP | 0.845 |
| RRIRHRPPRLPRPRPRPCWPPRP | -0.106 |
| RRIRCRPPRLPRPRPRPSMQPRP | -0.328 |
| RRIRFRPPRLPRPRPRPAWRPRP | 0.765 |
| RRIRGRPPRLPRPRPRPCTKPRP | 0.235 |
| RRIRIRPPRLPRPRPRPANTPRP | 0.027 |
| RRIRFRPPRLPRPRPRPHTYPRP | -0.554 |
| RRIRIRPPRLPRPRPRPNAWPRP | 0.213 |
| RRIRCRPPRLPRPRPRPWNGPRP | -0.0552 |
| RRIRWRPPRLPRPRPRPMQTPRP | 1 |
| RRIRVRPPRLPRPRPRPWATPRP | -0.122 |
| RRIRDRPPRLPRPRPRPPIKPRP | -0.204 |
| RRIRRRPPRLPRPRPRPEVYPRP | 0.0769 |
| RRIRQRPPRLPRPRPRPQIRPRP | -0.307 |
| RRIRMRPPRLPRPRPRPRFTPRP | 0.323 |
| RRIRHRPPRLPRPRPRPEPKPRP | -0.0206 |
| RRIRRRPPRLPRPRPRPQAHPRP | 0.544 |

| Sequence | shrunken log2 fold change |
| --- | --- |
| RRIRARPPRLPRPRPRPMTNPRP | 0.178 |
| RRIRFRPPRLPRPRPRPHTDPRP | -0.736 |
| RRIRMRPPRLPRPRPRPETCPRP | 1.67 |
| RRIRSRPPRLPRPRPRPIGSPRP | 0.136 |
| RRIRKRPPRLPRPRPRPIDCPRP | 0.0653 |
| RRIRVRPPRLPRPRPRPMNHPRP | -0.194 |
| RRIRRRPPRLPRPRPRPFSMPRP | 0.0721 |
| RRIRQRPPRLPRPRPRPLPMPRP | 0.0747 |
| RRIRYRPPRLPRPRPRPDLKPRP | -0.21 |
| RRIRDRPPRLPRPRPRPKLDPRP | 0.0966 |
| RRIRARPPRLPRPRPRPCFPPRP | -0.0469 |
| RRIRLRPPRLPRPRPRPDLCPRP | 0.307 |
| RRIRDRPPRLPRPRPRPWPLPRP | 0.00172 |
| RRIRHRPPRLPRPRPRPYPWPRP | -0.113 |
| RRIRTRPPRLPRPRPRPSCMPRP | -0.0847 |
| RRIRYRPPRLPRPRPRPEGLPRP | -0.0136 |
| RRIRFRPPRLPRPRPRPHELPRP | 0.0835 |
| RRIRERPPRLPRPRPRPRGQPRP | 0.837 |
| RRIRIRPPRLPRPRPRPVWGPRP | 0.0298 |
| RRIRDRPPRLPRPRPRPAGCPRP | 0.738 |
| RRIRDRPPRLPRPRPRPTSRPRP | 0.208 |
| RRIRMRPPRLPRPRPRPAWGPRP | 0.81 |
| RRIRYRPPRLPRPRPRPPGSPRP | 0.0125 |
| RRIRARPPRLPRPRPRPERMPRP | 0.618 |
| RRIRGRPPRLPRPRPRPHMRPRP | 0.997 |

| Sequence | shrunken log2 fold change |
| --- | --- |
| RRIRWRPPRLPRPRPRPRMQPRP | 0.329 |
| RRIRYRPPRLPRPRPRPSAYPRP | -0.854 |
| RRIRQRPPRLPRPRPRPQMQPRP | 0.131 |
| RRIRHRPPRLPRPRPRPSESPRP | -0.232 |
| RRIRHRPPRLPRPRPRPRSMPRP | -0.241 |
| RRIRDRPPRLPRPRPRPTQGPRP | 0.797 |
| RRIRSRPPRLPRPRPRPRFKPRP | 0.0925 |
| RRIRHRPPRLPRPRPRPWSDPRP | -0.138 |
| RRIRKRPPRLPRPRPRPMNLPRP | -0.223 |
| RRIRFRPPRLPRPRPRPDSTPRP | -0.596 |
| RRIRIRPPRLPRPRPRPIATPRP | -0.471 |
| RRIRWRPPRLPRPRPRPYAEPRP | 0.258 |
| RRIRLRPPRLPRPRPRPATPPRP | 1.05 |
| RRIRIRPPRLPRPRPRPSDKPRP | -0.79 |
| RRIRMRPPRLPRPRPRPKREPRP | 0.055 |
| RRIRPRPPRLPRPRPRPTFPPRP | 0.025 |
| RRIRWRPPRLPRPRPRPLYVPRP | -0.836 |
| RRIRFRPPRLPRPRPRPAAWPRP | 0.28 |
| RRIRIRPPRLPRPRPRPFHIPRP | -0.127 |
| RRIRHRPPRLPRPRPRPTCQPRP | -0.044 |
| RRIRNRPPRLPRPRPRPMIKPRP | -0.456 |
| RRIRFRPPRLPRPRPRPGKTPRP | -0.142 |
| RRIRIRPPRLPRPRPRPTMGPRP | 0.0793 |
| RRIRNRPPRLPRPRPRPQVGPRP | 0.00312 |
| RRIRPRPPRLPRPRPRPDNQPRP | -0.357 |

| Sequence | shrunken log2 fold change |
| --- | --- |
| RRIRSRPPRLPRPRPRPEEAPRP | 0.983 |
| RRIRYRPPRLPRPRPRPESAPRP | -0.146 |
| RRIRARPPRLPRPRPRPIYSPRP | -0.227 |
| RRIRRRPPRLPRPRPRPPAKPRP | 1.35 |
| RRIRTRPPRLPRPRPRPPHMPRP | -0.101 |
| RRIRCRPPRLPRPRPRPNHLPRP | -0.437 |
| RRIRARPPRLPRPRPRPPFAPRP | 0.87 |
| RRIRLRPPRLPRPRPRPSAYPRP | 0.0888 |
| RRIRYRPPRLPRPRPRPGIAPRP | -0.269 |
| RRIRKRPPRLPRPRPRPQQSPRP | -0.0568 |
| RRIRKRPPRLPRPRPRPHDRPRP | 0.29 |
| RRIRKRPPRLPRPRPRPADKPRP | 0.122 |
| RRIRERPPRLPRPRPRPRNCPRP | -0.102 |
| RRIRDRPPRLPRPRPRPVPWPRP | 0.189 |
| RRIRNRPPRLPRPRPRPFTKPRP | -0.0763 |
| RRIRLRPPRLPRPRPRPREWPRP | -0.0315 |
| RRIRYRPPRLPRPRPRPPHIPRP | -0.808 |
| RRIRPRPPRLPRPRPRPTPFPRP | 0.269 |
| RRIRYRPPRLPRPRPRPVVCPRP | -0.408 |
| RRIRKRPPRLPRPRPRPAMEPRP | 0.0841 |
| RRIRPRPPRLPRPRPRPDNTPRP | -0.373 |
| RRIRHRPPRLPRPRPRPGIWPRP | 0.139 |
| RRIRFRPPRLPRPRPRPMDGPRP | -0.0177 |
| RRIRRRPPRLPRPRPRPIADPRP | -0.0686 |
| RRIRGRPPRLPRPRPRPIASPRP | 0.524 |

| Sequence | shrunken log2 fold change |
| --- | --- |
| RRIRVRPPRLPRPRPRPLWEPRP | 0.203 |
| RRIRVRPPRLPRPRPRPPGWPRP | 0.718 |
| RRIRNRPPRLPRPRPRPKNVPRP | -0.267 |
| RRIRARPPRLPRPRPRPMWNPRP | -0.342 |
| RRIRMRPPRLPRPRPRPVMPPRP | -0.0271 |
| RRIRNRPPRLPRPRPRPFAMPRP | -0.177 |
| RRIRFRPPRLPRPRPRPFTYPRP | -0.208 |
| RRIRSRPPRLPRPRPRPMLEPRP | -0.0898 |
| RRIRKRPPRLPRPRPRPMGDPRP | 0.153 |
| RRIRCRPPRLPRPRPRPTFVPRP | -0.161 |
| RRIRGRPPRLPRPRPRPMHVPRP | 0.0539 |
| RRIRDRPPRLPRPRPRPYCQPRP | -0.226 |
| RRIRYRPPRLPRPRPRPWKIPRP | -0.245 |
| RRIRKRPPRLPRPRPRPNYLPRP | -0.0798 |
| RRIRSRPPRLPRPRPRPASYPRP | 0.102 |
| RRIRARPPRLPRPRPRPPCPPRP | 0.489 |
| RRIRERPPRLPRPRPRPQMGPRP | -0.115 |
| RRIRNRPPRLPRPRPRPEGKPRP | -0.0135 |
| RRIRTRPPRLPRPRPRPTHEPRP | 0.746 |
| RRIRFRPPRLPRPRPRPETHPRP | -0.0779 |
| RRIRQRPPRLPRPRPRPIDKPRP | 0.0866 |
| RRIRIRPPRLPRPRPRPGCNPRP | -0.247 |
| RRIRMRPPRLPRPRPRPGYVPRP | -0.118 |
| RRIRVRPPRLPRPRPRPGFWPRP | 0.587 |
| RRIRARPPRLPRPRPRPKFEPRP | 0.574 |
